Literature values, collected in PMC3090270.
pKd: −log10 of the molar value.

Molecular target: PKA RII alpha D/D (UniProt P12367)
Sequence (P12367 2-45): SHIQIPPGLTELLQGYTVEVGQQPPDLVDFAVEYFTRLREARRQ

Sequence of D-AKAP2 AKB (O43572 623-649): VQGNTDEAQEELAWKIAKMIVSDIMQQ

In the case of D-AKAP2 AKB (from UniProt O43572), the pKd is listed as 8.70.
